Laboratory results as given in patent publication US11464784B2, “Inhibition of aminocylase 3 (AA3) in the treatment of cancer” (THE REGENTS OF THE UNIVERSITY OF CALIFORNIA, priority 2017, dated 2022).

Substrate: CC(=O)C/C(C)=C/CC/C(C)=C/CC/C(C)=C/CC/C(C)=C/CN[C@@H](CS)C(=O)O
Assay: Substrate kinetics of mouse AA3 (mAA3)
Format: biochemical
Conditions: other: substrate of mAA3

B1: mAA3 (Mus musculus) (protein)
chain: MSSLPGSREPLLRVAVTGGTHGNEMCGVYLARYWLQNPGELQRPSFSAMPVLANPAATAACCRYLDRDLNRSCTLTFLGSTATPDDPYEVKRARELNQLLGPKGTGQAFDFTLDLHNTTANTGVCLISESNISFNLHLCHYLQRQNPGMPCRLFLYEPAGTETFSVESISKNGICLEMGPQPQGVLRADLFSRMRALVASILDFIELFNQGMDLPAFEMDIYRNLGSVDFPRTADGDLAGTVHPQLQDHDFEPLRPGEPIFKLFSGEDVLYEGDSIVYPVFINEAAYYEKHVAFLKSEKIRVTVPALLRLTPRSTQTP
- Km: 25 µM
